The source of these data is publication PMC3787745, “Yeast Mnn9 is both a priming glycosyltransferase and an allosteric activator of mannan biosynthesis” (Open Biology, 2013).

Substrate in data set [1]: Nc1nc2c(ncn2[C@@H]2O[C@H](COP(=O)(O)OP(=O)(O)O[C@H]3O[C@H](CO)[C@@H](O)[C@H](O)[C@@H]3O)[C@@H](O)[C@H]2O)c(=O)[nH]1
Nature of the data set: coupled fluorimetric assay with Aman6 mannosidase (4-MU release). The format is biochemical, Saccharomyces cerevisiae. The settings on record: donor varied 0-1.2 mM, 10 mM 4MU-Man, 10 mM MnCl2, 20 mM HEPES pH 7.5, 500 nM enzyme.

Substrate in data set [2]: Cc1cc(=O)oc2cc(O[C@H]3O[C@H](CO)[C@@H](O)[C@H](O)[C@@H]3O)ccc12
Described as above. The settings on record: acceptor varied 0-10 mM, 1.2 mM GDP-Man, 10 mM MnCl2, 20 mM HEPES pH 7.5, 500 nM enzyme. It is filed as biochemical, Saccharomyces cerevisiae.

One may read the kcat as the number of substrate molecules converted per active site and unit of time at saturation.

B1: ScMnn9 (Saccharomyces cerevisiae S288C) (protein)
chain: EGHIAHYDLNKLHSTSEAAVNKEHILILTPMQTFHQQYWDNLLQLNYPRELIELGFITPRTATGDLALKKLENAIKKVQTDKKTQRFSKITILRQNSQSFDKLMEKERHALDVQKERRAAMALARNELLFSTIGPHTSWVLWLDADIIETPPSLIQDMTKHNKAILAANIYQRFYDEEKKQPSIRPYDFNNWQESDTGLEIASQMGDDEIIVEGYAEIATYRPLMAHFYDANGVPGEEMALDGVGGGCTLVKAEVHRDGAMFPNFPFYHLIETEGFAKMAKRLNYDVFGLPNYLVYHIEEENH
notes: glycosyltransferase domain 93-395, lacking first 92 residues; N-terminal MBP-His6-TEV tag cleaved; E. coli BL21(DE3) pLysS
As to B1, the Km in data set [1] is listed as 0.5 (± 0.2) mM; in data set [2] it was 6.5 (±0.3) mM. Moreover, the kcat in data set [1] came to 0.0633 s⁻¹; in data set [2], 0.0033 s⁻¹.
